Like-named read-outs stand apart in the source and are kept apart here.

Data set [1] deals with T1, Cas12i2 mammalian construct (uncultured freshwater lake metagenome).
T1 sequence: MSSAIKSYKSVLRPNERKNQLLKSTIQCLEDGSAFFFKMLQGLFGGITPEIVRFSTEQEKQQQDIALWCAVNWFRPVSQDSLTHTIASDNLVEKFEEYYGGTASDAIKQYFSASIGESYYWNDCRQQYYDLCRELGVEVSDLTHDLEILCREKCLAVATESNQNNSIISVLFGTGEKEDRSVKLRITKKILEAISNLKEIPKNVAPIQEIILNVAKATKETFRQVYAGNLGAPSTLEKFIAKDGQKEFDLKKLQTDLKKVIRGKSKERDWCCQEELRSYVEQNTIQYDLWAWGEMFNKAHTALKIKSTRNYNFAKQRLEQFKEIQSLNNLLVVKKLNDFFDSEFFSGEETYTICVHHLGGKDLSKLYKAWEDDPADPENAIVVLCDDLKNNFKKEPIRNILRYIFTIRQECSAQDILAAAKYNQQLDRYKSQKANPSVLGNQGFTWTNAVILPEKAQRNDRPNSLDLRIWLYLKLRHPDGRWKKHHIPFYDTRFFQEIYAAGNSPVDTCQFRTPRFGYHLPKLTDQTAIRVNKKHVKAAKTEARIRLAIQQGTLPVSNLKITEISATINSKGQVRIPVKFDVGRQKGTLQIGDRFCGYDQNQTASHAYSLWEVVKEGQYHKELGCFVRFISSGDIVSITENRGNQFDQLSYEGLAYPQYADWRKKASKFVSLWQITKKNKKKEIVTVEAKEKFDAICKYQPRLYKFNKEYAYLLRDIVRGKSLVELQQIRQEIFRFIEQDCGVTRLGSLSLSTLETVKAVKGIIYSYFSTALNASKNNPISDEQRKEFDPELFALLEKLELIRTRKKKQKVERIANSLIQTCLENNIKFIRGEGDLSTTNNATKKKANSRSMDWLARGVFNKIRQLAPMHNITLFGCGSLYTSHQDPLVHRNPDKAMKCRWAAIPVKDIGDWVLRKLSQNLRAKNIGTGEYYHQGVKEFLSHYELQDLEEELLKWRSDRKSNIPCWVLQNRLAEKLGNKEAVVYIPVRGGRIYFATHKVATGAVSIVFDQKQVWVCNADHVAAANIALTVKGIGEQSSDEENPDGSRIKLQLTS
Nature of the data set: cell_activity. The note with it: PAM TTC; 293T cells, 72 h; indels centred around +20 from PAM.

For data set [2], the system named is T2, Cas12i1 (IVTT-expressed) (uncultured freshwater metagenome).
T2 sequence: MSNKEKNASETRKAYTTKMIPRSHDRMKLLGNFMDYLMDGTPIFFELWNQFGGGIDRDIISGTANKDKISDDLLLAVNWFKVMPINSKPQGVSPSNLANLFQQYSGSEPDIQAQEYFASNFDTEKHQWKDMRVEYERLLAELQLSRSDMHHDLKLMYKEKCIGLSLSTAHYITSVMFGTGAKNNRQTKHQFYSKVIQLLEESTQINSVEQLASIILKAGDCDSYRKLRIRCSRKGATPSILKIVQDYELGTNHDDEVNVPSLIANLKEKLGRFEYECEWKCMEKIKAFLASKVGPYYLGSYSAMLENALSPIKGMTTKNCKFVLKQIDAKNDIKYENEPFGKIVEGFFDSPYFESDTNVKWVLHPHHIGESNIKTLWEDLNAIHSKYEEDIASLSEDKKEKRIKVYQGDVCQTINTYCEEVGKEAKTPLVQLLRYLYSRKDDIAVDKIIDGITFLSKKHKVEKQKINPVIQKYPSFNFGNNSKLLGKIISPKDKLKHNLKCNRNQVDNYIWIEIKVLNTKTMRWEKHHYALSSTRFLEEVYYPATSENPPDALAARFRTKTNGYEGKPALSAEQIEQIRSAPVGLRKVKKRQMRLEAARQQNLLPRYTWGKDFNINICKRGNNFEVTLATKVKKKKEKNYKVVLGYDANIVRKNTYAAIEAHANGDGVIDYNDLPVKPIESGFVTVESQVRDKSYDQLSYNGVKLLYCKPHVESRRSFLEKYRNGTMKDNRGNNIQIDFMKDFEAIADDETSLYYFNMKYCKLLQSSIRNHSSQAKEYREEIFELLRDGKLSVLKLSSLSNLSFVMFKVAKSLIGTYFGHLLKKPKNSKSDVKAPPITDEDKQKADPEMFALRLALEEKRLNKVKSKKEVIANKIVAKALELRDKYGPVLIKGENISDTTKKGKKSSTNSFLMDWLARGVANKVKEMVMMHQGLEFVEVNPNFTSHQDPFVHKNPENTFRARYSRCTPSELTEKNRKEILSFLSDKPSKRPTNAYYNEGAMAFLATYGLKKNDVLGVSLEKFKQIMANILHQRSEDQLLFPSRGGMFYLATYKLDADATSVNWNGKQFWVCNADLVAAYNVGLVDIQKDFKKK
The note with it: IVTT gene silencing, after 400 min.

Data set [3] shares this test system. The note with it: IVTT gene silencing.

“VEGFA guide for Cas12i2 (pre-crRNA) ; VEGFA locus target, TTC PAM” gave an activity in data set [1] of 13 % indel. Substance “GFP guide complementary to template strand ; GFP plasmid (sigma 28 promoter)” yielded an activity (fold GFP depletion) in data set [2] of 2. “GFP guide complementary to coding strand ; GFP plasmid (sigma 28 promoter)”: the activity (fold GFP depletion) in data set [3] was greater than 4.

(Values after patent US20200407715.)
